The subject of data set [1] is synthetic recursive+1 pathway. The data set is described as follows: In vivo alcohol production of the synthetic recursive+1 pathway (fermentation, GC-FID). The format is cell-based, E. coli. The conditions noted are these: for 1-Butanol production / 1-Ethanol production / 1-Heptanol production / 1-Hexanol production / 1-Octanol production / 1-Pentanol production / 1-Propanol production: forty hours, microaerobic, defined media. The procedure:
The measured specificity and activity for each enzyme was used to select two candidates for further characterization of their ability to modulate alcohol production in vivo. The two enzymes with the highest activity and specificity (FIG. 4), KIVD_VLV and GEO 175, were tested for their ability to reprogram the synthetic recursive+1 pathway to produce long-chain alcohol products in vivo. The alcohol-producing biochemical pathway was adapted from a previous study used to synthesize alcohols of various lengths.^3,4 Starting from glucose, the aforementioned+1 pathway, involving LeuABCD, recursively elongates 2-ketoacids, starting with 2-ketobutyrate, into longer chained 2-ketoacids. These 2-ketoacids are then converted to aldehydes by ketoacid decarboxylases (native KIVD, KIVD_VLV, and GEO 175) and subsequently to alcohols by an alcohol dehydrogenase. Carbon flux through this alcohol synthesizing biochemical pathway is enhanced by overexpressing thrABC, ilvA, LeuABCD, and ADH6 on inducible plasmids transformed into E. coli.^3 The effects of overexpression were furthermore supported and maintained by knocking out the threonine exporter enzyme RhtA and the primary DNA recombination degradation enzyme RecA. The enzyme AdhE was also knocked out, which helps raise long chain alcohol production by eliminating a competing pathway where acetyl-CoA is directly converted to ethanol.^19
Genes were removed from the ATCC 98082 ΔrhtA strain genome using P1 transduction from the Keio collection as previously.^32 The aldehyde-alcohol dehydrogenase gene (adhE) was knocked out to eliminate ethanol production from acetyl-coA. In all strains, recA was knocked out to prevent recombination between the genome and plasmids, thereby stabilizing the transformants. Primers used to target recA for knockout were designed based on the Keio collection (Genobase, ecoli.aist-nara.ac.jp) and ordered from Integrated DNA Technologies.
For n-alcohol production, strains of ST128 were transformed with pZS_thrO, pZAlac_ilvABSleuA, and pZE_LeuA*BCDK*A6 containing various kivd mutations. Fermentation conditions were adapted from those in previous works,^3,4 with the following changes: 20 mL of medium was used, with 100 μg/mL ampicillin, […] kanamycin, and 100 μg/mL spectinomycin added. Cells were grown to an optical density at 600 nm of ˜0.6, followed by induction with 0.1 mM isopropyl-b-D-thiogalactoside (IPTG). After fermentation, cells were centrifuged for 15 minutes at 4000×g and 4° C. The supernatant was split into two fractions for analysis, 5 mL for short chain alcohols (ethanol, 1-propanol, and 1-butanol), and 15 mL for long chain alcohols (1-pentanol, 1-hexanol, 1-heptanol, and 1-octanol). Long chain alcohols were extracted from the 15 mL fraction by 3 mL n-hexane prior to analysis. GC-FID analysis was performed as previously described.^4

A short description of data set [2]: In vitro steady-state kinetics of purified 2-ketoacid decarboxylases (ADH/NADH-coupled), C8 substrate. The format is biochemical. The settings on record: kcat/KM on C8. The protocol:
For the native KIVD and KIVD_VLV mutant, 2 ml overnight cultures of XL1B cells were transformed with pQE9 containing N-terminal his-tagged KIVD enzymes and grown in Terrific Broth (BP biomedical, Cat#3046-042) with 50 μg/mL of carbenicillin. (Fisher scientific, Cat# BP2648-5) For the GEOs, 2 ml overnight cultures of BLR cells were transformed with pet29b+ plasmid containing N-terminal his-tagged GEOs, and grown in Terrific Broth with 50 μg/mL of kanamycin. (Fisher scientific, Cat# BP906-5) These cultures were diluted 1:1000 in 500 mL of Terrific Broth with 1 mM MgSO4, 1% glucose, and 50ug/mL of corresponding antibiotics, then grown at 37° C. for 24 hours. […] Protein concentrations were determined using a Synergy H1 spectrophotometer (Biotek) by measuring absorbance at 280 nm using their calculated extinction coefficients with ExPASy ProtParam Tool.^33 All other buffers and salts were purchased from Fisher Scientific unless otherwise specified.
The kcat and KM values of selective KIVD mutants were measured for the substrates: C3, C5, isoC5, and C8. […] Activity was measured at 0.005 mM to 10 mM substrates. […] Absorbance readings were taken every 1-minute at OD340 at 21° C. for 60 minutes using the Synergy H1. Kinetic parameters (kcat and KM) were determined by fitting initial velocity versus substrate concentration data to the Michaelis-Menten equation.

Values joined by “and” are separate entries in the source; they are usually repeats but may differ in a detail not shown here. Equal entries are not always repeated.

We go through two molecules from patent publication US10829756B2, “Discovery of enzymes from the alpha-keto acid decarboxylase family” (Regents of the University of California, priority 2015, dated 2020).

B1: Native KIVD: ketoisovalerate decarboxylase used in the current synthetic recursive+1 pathway, SEQ ID NO:1 (protein, listed as Lactococcus lactis)
chain: MYTVGDYLLDRLHELGIEEIFGVPGDYNLQFLDQIISRKDMKWVGNANELNASYMADGYARTKKAAAFLTTFGVGELSAVNGLAGSYAENLPVVEIVGSPTSKVQNEGKFVHHTLADGDFKHFMKMHEPVTAARTLLTAENATVEIDRVLSALLKERKPVYINLPVDVAAAKAEKPSLPLKKENSTSNTSDQEILNKIQESLKNAKKPIVITGHEIISFGLEKTVSQFISKTKLPITTLNFGKSSVDEALPSFLGIYNGKLSEPNLKEFVESADFILMLGVKLTDSSTGAFTHHLNENKMISLNIDEGKIFNESIQNFDFESLISSLLDLSEIEYKGKYIDKKQEDFVPSNALLSQDRLWQAVENLTQSNETIVAEQGTSFFGASSIFLKPKSHFIGQPLWGSIGYTFPAALGSQIADKESRHLLFIGDGSLQLTVQELGLAIREKINPICFIINNDGYTVEREIHGPNQSYNDIPMWNYSKLPESFGATEERVVSKIVRTENEFVSVMKEAQADPNRMYWIELILAKEDAPKVLKKMGKLFAEQNKS
For B1, in data set [1], the overall alcohol production came out at 4.0 g/L, the “short alcohols (C2-C4) share of total alcohol production” value amounted to 82%, the 1-Butanol production was determined as 1964 ± 24 mg/L and the 1-Ethanol production was found to be 652 ± 32 mg/L. In data set [1], the 1-Heptanol production is reported as 20 ± 3 mg/L, the 1-Hexanol production is 75 ± 6 mg/L, the 1-Octanol production entry is “not observed” and the 1-Pentanol production was determined as 594 ± 20 mg/L. For the same molecule, in data set [1], the 1-Propanol production is reported as 693 ± 4 mg/L.

B2: GEO175: native enzyme from Streptomyces sp. C, predicted protein with no known function, 2-ketoacid decarboxylase, SEQ ID NO:2 (protein)
chain: MRTVRESALDVLRARGMTTVFGNPGSTELPMLKQFPDDFRYVLGLQEAVVVGMADGFALASGTTGLVNLHTGPGTGNAMGAILNARANRTPMVVTAGQQVRAMLTMEALLTNPQSTLLPQPAVKWAYEPPRAADVAPALARAVQVAETPPQGPVFVSLPMDDFDVVLGEDEDRAAQRAAARTVTHAAAPSAEVVRRLAARLSGARSAVLVAGNDVDASGAWDAVVELAERTGLPVWSAPTEGRVAFPKSHPQYRGMLPPAIAPLSRCLEGHDLVLVIGAPVFCYYPYVPGAHLPENTELVHLTRDADEAARAPVGDAVVADLALTVRALLAELPAREAAAPAARTARAESTAEVDGVLTPLAAMTAIAQGAPANTLWVNESPSNLGQFHDATRIDTPGSFLFTAGGGLGFGLAAAVGAQLGAPDRPVVCVIGDGSTHYAVQALWTAAAYKVPVTFVVLSNQRYAILQWFAQVEGAQGAPGLDIPGLDIAAVATGYGVRAHRATGFGELSKLVRESALQQDGPVLIDVPVTTELPTL
modifications: Streptomyces sp. C
For the molecule B2, in data set [2], the “catalytic efficiency on C8 lower than native KIVD” value is reported as 2 fold. In data set [1], the “drop of overall alcohol production from that obtained with KIVD” value is listed as around 10 fold; the “heptanol share of alcohol production” value worked out at 50%; the “hexanol share of alcohol production” value is reported as 29%; the major alcohol product entry was “heptanol (C7) and 1-heptanol”. In data set [1], the “pentanol share of alcohol production” value is recorded as 16%, the 1-Butanol production came out at 19 mg/L, the 1-Ethanol production entry is reported as “no ethanol or propanol production is observed” and the 1-Heptanol production is listed as 274 mg/L. Further, in data set [1], the 1-Hexanol production is given as 160 mg/L, the 1-Octanol production is 10 mg/L, the 1-Pentanol production is recorded as 88 mg/L and the 1-Propanol production result was “no ethanol or propanol production is observed”. In addition, in data set [1] (listed as GEO 175), the 1-Butanol production turned out to be 19 ± 2 mg/L, the 1-Heptanol production is reported as 274 ± 19 mg/L, the 1-Hexanol production was 160 ± 18 mg/L and the 1-Octanol production turned out to be 10 ± 1 mg/L. Besides, the 1-Pentanol production in data set [1] (listed as GEO 175) turned out to be 88 ± 12 mg/L. Further, the “long chain (≥C5) alcohols produced” value in data set [1] (sum of long chain alcohols) is 522 mg/L.
